B1: synthetic peptide MH20 (peptide)
peptide: RAIVGFRVQWLRRYFVNGSR

Experiments:
[1] = molecular target: class I HLA molecules (MHC-I) at the cell surface (human); assay: cell-based or functional assay
Ad5Luc3 = molecular target: T1, Ad5Luc3 (adenovirus serotype 5 (Ad5), UniProt P11818 1-581); assay: cell-based or functional assay
T1 sequence: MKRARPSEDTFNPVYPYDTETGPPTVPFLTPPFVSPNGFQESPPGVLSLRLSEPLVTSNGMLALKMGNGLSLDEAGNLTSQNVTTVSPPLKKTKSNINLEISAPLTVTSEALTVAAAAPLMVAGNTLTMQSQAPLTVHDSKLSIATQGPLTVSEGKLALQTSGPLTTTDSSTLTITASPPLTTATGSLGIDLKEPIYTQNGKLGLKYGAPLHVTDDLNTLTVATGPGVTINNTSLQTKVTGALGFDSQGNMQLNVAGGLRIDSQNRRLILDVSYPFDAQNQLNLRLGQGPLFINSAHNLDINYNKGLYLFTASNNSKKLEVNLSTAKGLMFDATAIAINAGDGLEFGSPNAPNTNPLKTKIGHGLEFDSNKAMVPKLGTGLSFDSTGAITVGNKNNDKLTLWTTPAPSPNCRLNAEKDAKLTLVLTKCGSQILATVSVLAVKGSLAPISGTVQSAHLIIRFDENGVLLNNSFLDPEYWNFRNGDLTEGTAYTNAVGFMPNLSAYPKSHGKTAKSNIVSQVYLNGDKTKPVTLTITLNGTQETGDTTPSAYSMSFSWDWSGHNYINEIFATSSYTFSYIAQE

Row | Molecule | luciferase activity 18 h post-infection, attachment at 0 C; Daudi HLA- cells against Daudi-HLA+ cells (orders of magnitude) [1] | fold decrease in luciferase activity (RLU) in HeLa cells; Ad5Luc3 preincubated with peptide, attachment at 0 C (Ad5Luc3)
1 | Ad5Luc3 (from UniProt P11818 1-581) | 3 to 4 | –
2 | B1 | – | 100 fold

Source: US20020150558A1 (CENTRE NATIONAL DE LA RECHERCHE SCIENTIFIQUE CNRS, published 2002)
